Reference: paper PMC3521585 (Journal of medicinal chemistry, 2009)
Non-standard residues stand in square brackets, D forms with d. No end group written: not given here. *: point of attachment. NH(3,5-(CF3)2-benzyl) = FC(F)(F)c1cc(CN*)cc(C(F)(F)F)c1; βGlc = OC[C@H]1O[C@@H](*)[C@H](O)[C@@H](O)[C@@H]1O; Nle = CCCC[C@H](N)C(=O)O

B1: Tyr-D-Ala-Gly-Phe-Nle-Pro-Leu-Trp-NH-3’,5’-Bzl(CF3)2 (peptide)
chain: YAGFXPLW
modifications: D-Ala at 2; norleucine (Nle) at 5 (written X); C-terminal 3’,5’-bis(trifluoromethyl)benzyl amide (Trp-NH-3’,5’-Bzl(CF3)2)

The binders below were run against T1, rat μ-opioid receptor (rat, UniProt P33535 1-398) (assay: radioligand binding).
T1 sequence (P33535 whole entry): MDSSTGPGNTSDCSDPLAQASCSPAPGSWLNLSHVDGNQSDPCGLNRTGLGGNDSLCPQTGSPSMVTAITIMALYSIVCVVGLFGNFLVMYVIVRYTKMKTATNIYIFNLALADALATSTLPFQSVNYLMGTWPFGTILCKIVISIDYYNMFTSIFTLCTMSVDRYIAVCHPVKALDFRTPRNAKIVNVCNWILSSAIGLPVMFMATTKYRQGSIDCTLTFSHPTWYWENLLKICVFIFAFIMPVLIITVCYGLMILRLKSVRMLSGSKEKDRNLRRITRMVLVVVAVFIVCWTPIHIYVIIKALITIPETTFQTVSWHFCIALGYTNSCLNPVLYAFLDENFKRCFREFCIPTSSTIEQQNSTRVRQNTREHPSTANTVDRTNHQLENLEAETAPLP

Row | Binder | Ki | LogIC50
1 | Y[dA]GF[Nle]PS(βGlc)W-{NH(3,5-(CF3)2-benzyl)} [Tyr-D-Ala-Gly-Phe-Nle-Pro-Ser(Glc)-Trp-NH-3’,5’-Bzl(CF3)2] | 8 nM | -7.77
2 | Y[dA]GF[Nle]PLS(βGlc)W-{NH(3,5-(CF3)2-benzyl)} [Tyr-D-Ala-Gly-Phe-Nle-Pro-Leu-Ser(Glc)-Trp-NH-3’,5’-Bzl(CF3)2] | – | -7.22
3 | Y[dA]GFS(βGlc)PLW-{NH(3,5-(CF3)2-benzyl)} [Tyr-D-Ala-Gly-Phe-Ser(Glc)-Pro-Leu-Trp-NH-3’,5’-Bzl(CF3)2] | 260 nM | -6.12
4 | Y[dA]GF[Nle]S(βGlc)LW-{NH(3,5-(CF3)2-benzyl)} [Tyr-D-Ala-Gly-Phe-Nle-Ser(Glc)-Leu-Trp-NH-3’,5’-Bzl(CF3)2] | 3400 nM | -5.15

What follows are binders tested against rat NK1 receptor (rat, UniProt P14600 1-407) (assay: radioligand binding).
Chain of rat NK1 receptor (P14600 whole entry): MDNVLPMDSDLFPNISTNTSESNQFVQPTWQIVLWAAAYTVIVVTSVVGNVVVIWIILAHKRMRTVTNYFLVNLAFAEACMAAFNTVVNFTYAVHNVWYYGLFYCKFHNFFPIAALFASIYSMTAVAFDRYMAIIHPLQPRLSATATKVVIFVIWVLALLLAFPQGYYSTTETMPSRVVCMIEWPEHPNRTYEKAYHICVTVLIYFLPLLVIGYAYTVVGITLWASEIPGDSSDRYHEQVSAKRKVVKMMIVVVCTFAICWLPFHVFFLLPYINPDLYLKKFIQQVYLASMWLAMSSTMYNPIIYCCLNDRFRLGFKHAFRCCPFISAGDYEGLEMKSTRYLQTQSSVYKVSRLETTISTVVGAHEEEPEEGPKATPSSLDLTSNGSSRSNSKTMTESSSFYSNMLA

Row | Binder | Ki | LogIC50
5 | Y[dA]GF[Nle]PS(βGlc)W-{NH(3,5-(CF3)2-benzyl)} [Tyr-D-Ala-Gly-Phe-Nle-Pro-Ser(Glc)-Trp-NH-3’,5’-Bzl(CF3)2] | 14 nM | -7.3
6 | Y[dA]GF[Nle]PLS(βGlc)W-{NH(3,5-(CF3)2-benzyl)} [Tyr-D-Ala-Gly-Phe-Nle-Pro-Leu-Ser(Glc)-Trp-NH-3’,5’-Bzl(CF3)2] | – | -7.02
7 | Y[dA]GFS(βGlc)PLW-{NH(3,5-(CF3)2-benzyl)} [Tyr-D-Ala-Gly-Phe-Ser(Glc)-Pro-Leu-Trp-NH-3’,5’-Bzl(CF3)2] | 1.5 nM | -8.35

Each binder was assayed against T2, human δ-opioid receptor (human, UniProt P41143 1-372) (assay: radioligand binding).
T2 sequence (P41143 whole entry, stated change not applied): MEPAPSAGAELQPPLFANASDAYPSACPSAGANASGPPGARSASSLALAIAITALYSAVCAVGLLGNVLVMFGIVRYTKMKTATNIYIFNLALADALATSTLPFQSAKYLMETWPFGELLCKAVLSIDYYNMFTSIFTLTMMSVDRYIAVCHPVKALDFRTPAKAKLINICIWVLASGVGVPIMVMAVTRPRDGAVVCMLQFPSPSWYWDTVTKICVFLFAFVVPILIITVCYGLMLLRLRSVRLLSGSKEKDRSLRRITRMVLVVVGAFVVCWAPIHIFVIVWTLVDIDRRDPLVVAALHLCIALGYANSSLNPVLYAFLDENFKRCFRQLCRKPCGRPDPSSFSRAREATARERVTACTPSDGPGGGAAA

Row | Binder | LogIC50 | Ki
8 | Y[dA]GF[Nle]PS(βGlc)W-{NH(3,5-(CF3)2-benzyl)} [Tyr-D-Ala-Gly-Phe-Nle-Pro-Ser(Glc)-Trp-NH-3’,5’-Bzl(CF3)2] | -8.1 | –
9 | B1 | -8.67 | 1 nM
10 | Y[dA]GFS(βGlc)PLW-{NH(3,5-(CF3)2-benzyl)} [Tyr-D-Ala-Gly-Phe-Ser(Glc)-Pro-Leu-Trp-NH-3’,5’-Bzl(CF3)2] | -6.91 | 59 nM

What follows are binders tested against human NK1 receptor (human, UniProt P25103 1-407) (assay: radioligand binding).
Chain of human NK1 receptor (P25103 whole entry): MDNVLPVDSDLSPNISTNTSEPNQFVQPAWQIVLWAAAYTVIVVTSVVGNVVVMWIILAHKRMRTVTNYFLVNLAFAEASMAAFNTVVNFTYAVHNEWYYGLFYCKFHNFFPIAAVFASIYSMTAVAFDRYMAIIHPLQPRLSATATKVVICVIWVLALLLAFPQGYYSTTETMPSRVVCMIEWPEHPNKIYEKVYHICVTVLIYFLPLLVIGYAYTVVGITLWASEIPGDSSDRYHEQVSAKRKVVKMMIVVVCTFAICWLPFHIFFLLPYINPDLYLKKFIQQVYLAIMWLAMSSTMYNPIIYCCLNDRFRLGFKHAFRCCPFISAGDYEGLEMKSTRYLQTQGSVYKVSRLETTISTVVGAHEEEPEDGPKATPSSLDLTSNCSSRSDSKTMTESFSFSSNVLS

Row | Binder | LogIC50 | Ki
11 | Y[dA]GF[Nle]PLS(βGlc)W-{NH(3,5-(CF3)2-benzyl)} [Tyr-D-Ala-Gly-Phe-Nle-Pro-Leu-Ser(Glc)-Trp-NH-3’,5’-Bzl(CF3)2] | -9.93 | –
12 | B1 | -11.6 | 0.0028 nM
13 | Y[dA]GFS(βGlc)PLW-{NH(3,5-(CF3)2-benzyl)} [Tyr-D-Ala-Gly-Phe-Ser(Glc)-Pro-Leu-Trp-NH-3’,5’-Bzl(CF3)2] | -12.2 | 0.0011 nM
14 | Y[dA]GF[Nle]S(βGlc)LW-{NH(3,5-(CF3)2-benzyl)} [Tyr-D-Ala-Gly-Phe-Nle-Ser(Glc)-Leu-Trp-NH-3’,5’-Bzl(CF3)2] | -8.38 | 1.8 nM

What follows are binders tested against T2, human δ-opioid receptor (assay: cell-based or functional assay).

Row | Binder | [35S]GTPγS binding, HN9.10 membranes expressing hDOR: EC50 | [35S]GTPγS binding, HN9.10 membranes expressing hDOR: Emax | [35S]GTPγS binding, HN9.10 membranes expressing hDOR: LogEC50
15 | Y[dA]GF[Nle]PS(βGlc)W-{NH(3,5-(CF3)2-benzyl)} [Tyr-D-Ala-Gly-Phe-Nle-Pro-Ser(Glc)-Trp-NH-3’,5’-Bzl(CF3)2] | 7.9 nM | 64% | -8.1
16 | Y[dA]GF[Nle]PLS(βGlc)W-{NH(3,5-(CF3)2-benzyl)} [Tyr-D-Ala-Gly-Phe-Nle-Pro-Leu-Ser(Glc)-Trp-NH-3’,5’-Bzl(CF3)2] | – | 49% | -7.56
17 | B1 | 5 nM | 120% | -8.3
18 | Y[dA]GFS(βGlc)PLW-{NH(3,5-(CF3)2-benzyl)} [Tyr-D-Ala-Gly-Phe-Ser(Glc)-Pro-Leu-Trp-NH-3’,5’-Bzl(CF3)2] | 52 nM | – | -7.29
19 | Y[dA]GF[Nle]S(βGlc)LW-{NH(3,5-(CF3)2-benzyl)} [Tyr-D-Ala-Gly-Phe-Nle-Ser(Glc)-Leu-Trp-NH-3’,5’-Bzl(CF3)2] | – | 130% | –

The binders below were run against T1, rat μ-opioid receptor (assay: cell-based or functional assay).

Row | Binder | [35S]GTPγS binding, HN9.10 membranes expressing rMOR: EC50 | [35S]GTPγS binding, HN9.10 membranes expressing rMOR: Emax | [35S]GTPγS binding, HN9.10 membranes expressing rMOR: LogEC50
20 | Y[dA]GF[Nle]PS(βGlc)W-{NH(3,5-(CF3)2-benzyl)} [Tyr-D-Ala-Gly-Phe-Nle-Pro-Ser(Glc)-Trp-NH-3’,5’-Bzl(CF3)2] | 18 nM | 38% | -7.75
21 | Y[dA]GF[Nle]PLS(βGlc)W-{NH(3,5-(CF3)2-benzyl)} [Tyr-D-Ala-Gly-Phe-Nle-Pro-Leu-Ser(Glc)-Trp-NH-3’,5’-Bzl(CF3)2] | – | 50% | -8.21
22 | Y[dA]GFS(βGlc)PLW-{NH(3,5-(CF3)2-benzyl)} [Tyr-D-Ala-Gly-Phe-Ser(Glc)-Pro-Leu-Trp-NH-3’,5’-Bzl(CF3)2] | 180 nM | – | -6.76
23 | Y[dA]GF[Nle]S(βGlc)LW-{NH(3,5-(CF3)2-benzyl)} [Tyr-D-Ala-Gly-Phe-Nle-Ser(Glc)-Leu-Trp-NH-3’,5’-Bzl(CF3)2] | 380 nM | 81% | -6.42
